These results are taken from the Human Domainome abundance scans (Beltran et al. 2025).

± gives the uncertainty stated by the source.

B1: Cell division cycle and apoptosis regulator protein 1, residues 625 to 674; numbered along this chain, Q8IX12 (parent)
chain: ISTPTHWSKLDPKTMKVNDLRKELESRALSSKGLKSQLIARLTKQLKVEE

Variants of B1 are the subject of this series. Briefly: abundance fitness (aPCA) (normalised: wild type 0, dead -1); higher = more abundant; growth selection in yeast, the domain comes from the species named. The conditions noted are these: Homo sapiens.
Take ISTPTMWSKLDPKTMKVNDLRKELESRALSSKGLKSQLIARLTKQLKVEE [H6M]: the abundance fitness was -0.036 ± 0.046.
Then ISTPTLWSKLDPKTMKVNDLRKELESRALSSKGLKSQLIARLTKQLKVEE [H6L], with 0.067 ± 0.038; and ISTPTYWSKLDPKTMKVNDLRKELESRALSSKGLKSQLIARLTKQLKVEE [H6Y], with -0.042 ± 0.049.
Consider ISTPTCWSKLDPKTMKVNDLRKELESRALSSKGLKSQLIARLTKQLKVEE [H6C], for which the abundance fitness was -0.065 ± 0.059.
Then ISTPTNWSKLDPKTMKVNDLRKELESRALSSKGLKSQLIARLTKQLKVEE [H6N], with 0.054 ± 0.045; and ISTPTFWSKLDPKTMKVNDLRKELESRALSSKGLKSQLIARLTKQLKVEE [H6F], with -0.037 ± 0.035.
ISTPTGWSKLDPKTMKVNDLRKELESRALSSKGLKSQLIARLTKQLKVEE [H6G]: the abundance fitness was -0.132 ± 0.042.
In the case of ISTPTDWSKLDPKTMKVNDLRKELESRALSSKGLKSQLIARLTKQLKVEE [H6D], the abundance fitness was 0.009 ± 0.048.
The result for ISTPTRWSKLDPKTMKVNDLRKELESRALSSKGLKSQLIARLTKQLKVEE [H6R] reads -0.092 ± 0.041.
Then ISTPTTWSKLDPKTMKVNDLRKELESRALSSKGLKSQLIARLTKQLKVEE [H6T], with -0.05 ± 0.048; and ISTPTVWSKLDPKTMKVNDLRKELESRALSSKGLKSQLIARLTKQLKVEE [H6V], with -0.003 ± 0.044; and ISTPTQWSKLDPKTMKVNDLRKELESRALSSKGLKSQLIARLTKQLKVEE [H6Q], with -0.062 ± 0.044.
Regarding ISTPTEWSKLDPKTMKVNDLRKELESRALSSKGLKSQLIARLTKQLKVEE [H6E], the abundance fitness came to 0.062 ± 0.048.
The result for ISTPTKWSKLDPKTMKVNDLRKELESRALSSKGLKSQLIARLTKQLKVEE [H6K] reads -0.008 ± 0.05; that for ISTPTSWSKLDPKTMKVNDLRKELESRALSSKGLKSQLIARLTKQLKVEE [H6S], -0.056 ± 0.031; that for ISTPTIWSKLDPKTMKVNDLRKELESRALSSKGLKSQLIARLTKQLKVEE [H6I], -0.014 ± 0.058.
The result for ISTPTWWSKLDPKTMKVNDLRKELESRALSSKGLKSQLIARLTKQLKVEE [H6W] reads -0.135 ± 0.05; that for ISTPTAWSKLDPKTMKVNDLRKELESRALSSKGLKSQLIARLTKQLKVEE [H6A], 0.014 ± 0.036.
As for ISTPTPWSKLDPKTMKVNDLRKELESRALSSKGLKSQLIARLTKQLKVEE [H6P], the abundance fitness amounted to 0.044 ± 0.034.
As to WSTPTHWSKLDPKTMKVNDLRKELESRALSSKGLKSQLIARLTKQLKVEE [I1W], the abundance fitness is -0.478 ± 0.1.
Regarding YSTPTHWSKLDPKTMKVNDLRKELESRALSSKGLKSQLIARLTKQLKVEE [I1Y], the abundance fitness was -0.206 ± 0.23.
On to ISTPTHLSKLDPKTMKVNDLRKELESRALSSKGLKSQLIARLTKQLKVEE [W7L], for which the abundance fitness was -0.223 ± 0.039.
The result for ISTPTHTSKLDPKTMKVNDLRKELESRALSSKGLKSQLIARLTKQLKVEE [W7T] reads -0.103 ± 0.035.
On to ISTPTHGSKLDPKTMKVNDLRKELESRALSSKGLKSQLIARLTKQLKVEE [W7G], for which the abundance fitness was -0.187 ± 0.046.
Then ISTPTHSSKLDPKTMKVNDLRKELESRALSSKGLKSQLIARLTKQLKVEE [W7S], with -0.104 ± 0.035; and ISTPTHVSKLDPKTMKVNDLRKELESRALSSKGLKSQLIARLTKQLKVEE [W7V], with -0.157 ± 0.033.
For the variant ISTPTHESKLDPKTMKVNDLRKELESRALSSKGLKSQLIARLTKQLKVEE [W7E], the abundance fitness is -0.139 ± 0.056.
Then ISTPTHKSKLDPKTMKVNDLRKELESRALSSKGLKSQLIARLTKQLKVEE [W7K], with -0.142 ± 0.047; and ISTPTHDSKLDPKTMKVNDLRKELESRALSSKGLKSQLIARLTKQLKVEE [W7D], with -0.197 ± 0.044.
Turning to ISTPTHQSKLDPKTMKVNDLRKELESRALSSKGLKSQLIARLTKQLKVEE [W7Q], the abundance fitness is -0.279 ± 0.07.
Take ISTPTHPSKLDPKTMKVNDLRKELESRALSSKGLKSQLIARLTKQLKVEE [W7P]: the abundance fitness is -0.101 ± 0.06.
The result for ISTPTHRSKLDPKTMKVNDLRKELESRALSSKGLKSQLIARLTKQLKVEE [W7R] reads -0.178 ± 0.036; that for ISTPTHASKLDPKTMKVNDLRKELESRALSSKGLKSQLIARLTKQLKVEE [W7A], -0.088 ± 0.035; that for ISTPTHNSKLDPKTMKVNDLRKELESRALSSKGLKSQLIARLTKQLKVEE [W7N], -0.29 ± 0.076.
Turning to ISTPTHYSKLDPKTMKVNDLRKELESRALSSKGLKSQLIARLTKQLKVEE [W7Y], the abundance fitness was -0.051 ± 0.042.
With ISTPTHISKLDPKTMKVNDLRKELESRALSSKGLKSQLIARLTKQLKVEE [W7I], the abundance fitness was -0.258 ± 0.051.
The result for ISTPTHCSKLDPKTMKVNDLRKELESRALSSKGLKSQLIARLTKQLKVEE [W7C] reads -0.112 ± 0.046; that for ISTPTHFSKLDPKTMKVNDLRKELESRALSSKGLKSQLIARLTKQLKVEE [W7F], -0.022 ± 0.063; that for ISTPTHMSKLDPKTMKVNDLRKELESRALSSKGLKSQLIARLTKQLKVEE [W7M], -0.122 ± 0.037.
The result for ISTRTHWSKLDPKTMKVNDLRKELESRALSSKGLKSQLIARLTKQLKVEE [P4R] reads 0.075 ± 0.039; that for ISTVTHWSKLDPKTMKVNDLRKELESRALSSKGLKSQLIARLTKQLKVEE [P4V], -0.033 ± 0.033.
The result for ISTQTHWSKLDPKTMKVNDLRKELESRALSSKGLKSQLIARLTKQLKVEE [P4Q] reads -0.108 ± 0.059; that for ISTKTHWSKLDPKTMKVNDLRKELESRALSSKGLKSQLIARLTKQLKVEE [P4K], 0.112 ± 0.063.
ISTFTHWSKLDPKTMKVNDLRKELESRALSSKGLKSQLIARLTKQLKVEE [P4F]: the abundance fitness was -0.072 ± 0.065.
With ISTWTHWSKLDPKTMKVNDLRKELESRALSSKGLKSQLIARLTKQLKVEE [P4W], the abundance fitness was -0.142 ± 0.058.
The result for ISTGTHWSKLDPKTMKVNDLRKELESRALSSKGLKSQLIARLTKQLKVEE [P4G] reads 0.1 ± 0.033; that for ISTETHWSKLDPKTMKVNDLRKELESRALSSKGLKSQLIARLTKQLKVEE [P4E], -0.052 ± 0.04; that for ISTITHWSKLDPKTMKVNDLRKELESRALSSKGLKSQLIARLTKQLKVEE [P4I], 0.029 ± 0.075.
Then ISTHTHWSKLDPKTMKVNDLRKELESRALSSKGLKSQLIARLTKQLKVEE [P4H], with -0.206 ± 0.079; and ISTTTHWSKLDPKTMKVNDLRKELESRALSSKGLKSQLIARLTKQLKVEE [P4T], with -0.035 ± 0.049.
Then ISTDTHWSKLDPKTMKVNDLRKELESRALSSKGLKSQLIARLTKQLKVEE [P4D], with -0.074 ± 0.039; and ISTCTHWSKLDPKTMKVNDLRKELESRALSSKGLKSQLIARLTKQLKVEE [P4C], with 0.139 ± 0.056.
